Our source for the Km and Vmax values is EP0311108A2, “Anti-HIV active 3'-azido-2,6-diaminopurine-2',3'-dideoxyriboside” (Stichting REGA V.Z.W., priority 1987, dated 1989).

Substrate in data set [1]: Nc1nc(N)c2ncn([C@@H]3O[C@H](CO)[C@@H](O)[C@@H]3O)c2n1
In words: purified protein, by the assay type. The conditions noted are these: other: substrate of ADA.

Substrate in data set [2]: [N-]=[N+]=N[C@H]1C[C@H](n2cnc3c(N)nc(N)nc32)O[C@@H]1CO
Put plainly: Deamination by adenosine deaminase (substrate kinetics). Type of data set: biochemical, beef. The settings on record: other: substrate of ADA.

Usually Km stands for the substrate concentration at which the rate is half of its maximum.

B1: beef intestine adenosine deaminase (ADA) (Bos taurus) (protein)
chain: MAQTPAFNKPKVELHVHLDGAIKPETILYYGRKRGIALPADTPEELQNIIGMDKPLSLPEFLAKFDYYMPAIAGCREAVKRIAYEFVEMKAKDGVVYVEVRYSPHLLANSKVEPIPWNQAEGDLTPDEVVSLVNQGLQEGERDFGVKVRSILCCMRHQPSWSSEVVELCKKYREQTVVAIDLAGDETIEGSSLFPGHVKAYAEAVKSGVHRTVHAGEVGSANVVKEAVDTLKTERLGHGYHTLEDATLYNRLRQENMHFEVCPWSSYLTGAWKPDTEHPVVRFKNDQVNYSLNTDDPLIFKSTLDTDYQMTKNEMGFTEEEFKRLNINAAKSSFLPEDEKKELLDLLYKAYGMPSPASAEQCL
notes: Kinetic properties of beef intestine adenosine deaminase; from tissue; host or cells: beef intestine
For B1, in data set [1], the Km amounted to 83 µM and the Vmax is given as 5.9 µmole/mg protein/min. In data set [2], the Km came to 11 µM and the Vmax worked out at 40 µmole/mg protein/min.
